The values that follow come from ChEMBL document CHEMBL2074029, “Substrate specificities of rat oatp1 and ntcp: implications for hepatic organic anion uptake” (Am J Physiol Gastrointest Liver Physiol, 2003).

What is called Km is the substrate concentration at which the rate is half of its maximum.

Common to all, as to format: functional, cell-based
Substrate in data set [1]: C[C@H](CCC(=O)NCCS(=O)(=O)O)C1CC[C@H]2[C@@H]3C[C@H](O)[C@@H]4C[C@H](O)CC[C@]4(C)[C@H]3CC[C@]12C
As to the kind of experiment: (§1) TP_TRANSPORTER: uptake in NTCP-expressing HeLa cells.

Substrate in data set [2]: C[C@H](CCC(=O)NCCS(=O)(=O)O)[C@H]1CC[C@H]2[C@@H]3CC[C@@H]4C[C@H](O)CC[C@]4(C)[C@H]3C[C@H](O)[C@]12C
Described as §1.

Substrate in data set [3]: O=C1OC(c2ccc(O)c(S(=O)(=O)O)c2)(c2ccc(O)c(S(=O)(=O)O)c2)c2c(Br)c(Br)c(Br)c(Br)c21
The description is as §1.

Substrate in data set [4]: C[C@H](CCC(=O)NCCS(=O)(=O)O)C1CC[C@H]2[C@@H]3C[C@H](O)[C@@H]4C[C@H](O)CC[C@]4(C)[C@H]3CC[C@]12C
Kind of data set: (§2) TP_TRANSPORTER: uptake in Oatp1-expressing HeLa cells.

Substrate in data set [5]: C[C@H](CCC(=O)NCCS(=O)(=O)O)[C@H]1CC[C@H]2[C@@H]3CC[C@@H]4C[C@H](O)CC[C@]4(C)[C@H]3C[C@H](O)[C@]12C
Described as §2.

Substrate in data set [6]: C[C@H](CCC(=O)O)[C@H]1CC[C@H]2[C@@H]3C[C@H](O)[C@@H]4C[C@H](O)CC[C@]4(C)[C@H]3CC[C@]12C
Described as §2.

B1: Hepatic sodium/bile acid cotransporter (Rattus norvegicus) (protein)
chain: MEVHNVSAPFNFSLPPGFGHRATDKALSIILVLMLLLIMLSLGCTMEFSKIKAHLWKPKGVIVALVAQFGIMPLAAFLLGKIFHLSNIEALAILICGCSPGGNLSNLFTLAMKGDMNLSIVMTTCSSFSALGMMPLLLYVYSKGIYDGDLKDKVPYKGIMISLVIVLIPCTIGIVLKSKRPHYVPYILKGGMIITFLLSVAVTALSVINVGNSIMFVMTPHLLATSSLMPFSGFLMGYILSALFQLNPSCRRTISMETGFQNIQLCSTILNVTFPPEVIGPLFFFPLLYMIFQLAEGLLIIIIFRCYEKIKPPKDQTKITYKAAATEDATPAALEKGTHNGNIPPLQPGPSPNGLNSGQMAN
In the case of B1, the values for the Km in data set [1], in data set [2] and in data set [3] were 6.8 µM, 7.4 µM and 3.7 µM, respectively.

B2: Solute carrier organic anion transporter family member 1A1 (Rattus norvegicus) (protein)
chain: MEETEKKIATQEGRLFSKMKVFLLSLTCACLTKSLSGVYMNSMLTQIERQFDISTSVAGLINGSFEIGNLFFIVFVSYFGTKLHRPVVIGIGCVIMGLGCLLMSLPHFFMGRYEYETTISPTGNLSSNSFLCMENRTQTLKPTQDPAECVKEMKSLMWICVMVGNIIRGIGETPIVPLGISYIEDFAKSENSPLYIGILEMGKVAGPIFGLLLGSYCAQIYVDIGSVNTDDLTITPSDTRWVGAWWIGFLVCAGVNILTSIPFFFLPKALPKKGQQENVAVTKDGKVEKYGGQAREENLGITKDFLTFMKRLFCNPIYMLFILTSVLQVNGFINKFTFLPKYLEQQYGKSTAEAIFLIGVYSLPPICLGYLIGGFIMKKFKITVKKAAYLAFCLSVFEYLLFLCHFMLTCDNAAVAGLTTSYKGVQHQLHVESKVLADCNTRCSCSTNTWDPVCGDNGVAYMSACLAGCKKFVGTGTNMVFQDCSCIQSLGNSSAVLGLCKKGPECANRLQYFLILTIIISFIYSLTAIPGYMVFLRCVKSEEKSLGVGLHTFCIRVFAGIPAPVYFGALIDRTCLHWGTLKCGQRGACRMYDINSFRHIYLGLPIALRGSSYLPAFFILILMRKFQFPGDIDSSATDHTEMMLGEKESEHTDVHGSPQVENDGELKTKL
Regarding B2, the Km in data set [4] worked out at 3.3 µM; in data set [5] it was 3.5 µM; in data set [6], 17.5 µM.
